Results taken from patent publication US20120003180A1 (TEXAS A AND M UNIVERSITY SYSTEM, published 2012).

Columns and labels:
[1] = target: T1, α5β1 integrin protein, covalently immobilised on the optical biosensor cuvette; assay: optical biosensor (IAsys), α5β1 immobilised, DV free in solution
T1 construct: The methods call the immobilised protein 'the α5β1 protein' and also 'immobilized α5'; The results speak of α5β1 integrin; also called α5β1 protein; immobilized α5 integrin
Procedure: (§1) Binding assays were carried out using an optical biosensor (IAsys; Affinity Sensors, UK) as described¹⁰⁸. In brief, to covalently bind the α5β1 protein, designated as an acceptor, onto the surfaces of a sensor, carboxylate groups present on the surface were activated by injection of a 1:1 mixture of 0.1 M N-hydroxysuccinimide and 0.4 M N-Ethyl-3-(3-dimethylaminopropyl) carbodiimide (Pierce). The acceptor dissolved in phosphate buffered saline (PBS) was then allowed to bind to the activated surface until a response plateau was reached. The residual active groups were blocked by an injection of 100 μL of 1 M Tris-HCl (pH 8.5).
(§2) The binding of DV to α5β1 was also investigated. DV's DGR sequence was mutated to AGR (D3904A) to determine whether this could disrupt DV binding to α5β1 as measured with optical biosensor (FIG. 18A).

[2] = target: T1, α5β1 integrin protein, covalently …; assay: optical biosensor (IAsys), α5β1 immobilised, DV free in solution; Kd from Koff/Kon
Procedure: as §1, §2

B1: Human perlecan Domain V (DV), recombinant, with C-terminal 6×His tag (ligand)
chain: EIKITFRPDSADGMLLYNGQKRVPGSPTNLANRQPDFISFGLVGGRPEFRFDAGSGMATIRHPTPLALGHFHTVTLLRSLTQGSLIVGDLAPVNGTSQGKFQGLDLNEELYLGGYPDYGAIPKAGLSSGFIGCVRELRIQGEEIVFHDLNLTAHGISHCPTCRDRPCQNGGQCHDSESSSYVCVCPAGFTGSRCEHSQALHCHPEACGPDATCVNRPDGRGYTCRCHLGRSGLRCEEGVTVTTPSLSGAGSYLALPALTNTHHELRLDVEFKPLAPDGVLLFSGGKSGPVEDFVSLAMVGGHLEFRYELGSGLAVLRSAEPLALGRWHRVSAERLNKDGSLRVNGGRPVLRSSPGKSQGLNLHTLLYLGGVEPSVPLSPATNMSAHFRGCVGEVSVNGKRLDLTYSFLGSQGIGQCYDSSPCERQPCQHGATCMPAGEYEFQCLCRDGFKGDLCEHEENPCQLREPCLHGGTCQGTRCLCLPGFSGPRCQQGSGHGIAESDWHLEGSGGNDAPGQYGAYFHDDGFLAFPGHVFSRSLPEVPETIELEVRTSTASGLLLWQGVEVGEAGQGKDFISLGLQDGHLVFRYQLGSGEARLVSEDPINDGEWHRVTALREGRRGSIQVDGEELVSGRSPGPNVAVNAKGSVYIGGAPDVATLTGGRFSSGITGCVKNLVLHSARPGAPPPQPLDLQHRAQAGANTRPCPSHHHHHH
notes: Cloned from HUVEC cDNA into pSecTag2A or pCepPu, secreted from 293 cells and purified on Ni beads; also called endorepellin; rhDV
koff [1]: 0.72 s⁻¹ | Kd [2]: 160 nM
